Measurements taken from patent US20210388040A1.

Target: SMARCD1 (human) (UniProt Q96GM5)
Assay: HA-bait purification from HEK-293T nuclear extract, mass spectrometry, peptide count

Chain of SMARCD1 (human) (Q96GM5 whole entry): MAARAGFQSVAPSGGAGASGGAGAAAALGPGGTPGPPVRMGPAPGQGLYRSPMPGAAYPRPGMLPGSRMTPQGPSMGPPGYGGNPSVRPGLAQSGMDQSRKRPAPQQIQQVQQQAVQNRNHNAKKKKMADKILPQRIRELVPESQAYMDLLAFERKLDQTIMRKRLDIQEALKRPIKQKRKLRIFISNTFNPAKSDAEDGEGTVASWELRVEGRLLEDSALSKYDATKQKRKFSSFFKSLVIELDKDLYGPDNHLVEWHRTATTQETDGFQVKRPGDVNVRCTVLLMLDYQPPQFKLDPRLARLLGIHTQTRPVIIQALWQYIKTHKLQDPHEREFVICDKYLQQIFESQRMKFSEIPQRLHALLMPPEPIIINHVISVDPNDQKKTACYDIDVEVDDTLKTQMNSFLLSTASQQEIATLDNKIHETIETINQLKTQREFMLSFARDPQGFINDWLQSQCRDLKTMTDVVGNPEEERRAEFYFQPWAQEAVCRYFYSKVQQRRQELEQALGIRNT

B1: HA-BRD7 (protein, human)
chain: MYPYDVPDYAMGKKHKKHKSDKHLYEEYVEKPLKLVLKVGGNEVTELSTGSSGHDSSLFEDKNDHDKHKDRKRKKRKKGEKQIPGEEKGRKRRRVKEDKKKRDRDRVENEAEKDLQCHAPVRLDLPPEKPLTSSLAKQEEVEQTPLQEALNQLMRQLQRKDPSAFFSFPVTDFIAPGYSMIIKHPMDFSTMKEKIKNNDYQSIEELKDNFKLMCTNAMIYNKPETIYYKAAKKLLHSGMKILSQERIQSLKQSIDFMADLQKTRKQKDGTDTSQSGEDGGCWQREREDSGDAEAHAFKSPSKENKKKDKDMLEDKFKSNNLEREQEQLDRIVKESGGKLTRRLVNSQCEFERRKPDGTTTLGLLHPVDPIVGEPGYCPVRLGMTTGRLQSGVNTLQGFKEDKRNKVTPVLYLNYGPYSSYAPHYDSTFANISKDDSDLIYSTYGEDSDLPSDFSIHEFLATCQDYPYVMADSLLDVLTKGGHSRTLQEMEMSLPEDEGHTRTLDTAKEMEITEVEPPGRLDSSTQDRLIALKAVTNFGVPVEVFDSEEAEIFQKKLDETTRLLRELQEAQNERLSTRPPPNMICLLGPSYREMHLAEQVTNNLKELAQQVTPGDIVSTYGVRKAMGISIPSPVMENNFVDLTEDTEEPKKTDVAECGPGGS
Question: What does the source list for B1?
Answer: Total: 73 peptides; Unique: 44 peptides
